In IntAct's records for PubMed 22939626:

Biological target: vira_shifl virA (UniProt Q7BU69)
Sequence (Q7BU69 whole entry): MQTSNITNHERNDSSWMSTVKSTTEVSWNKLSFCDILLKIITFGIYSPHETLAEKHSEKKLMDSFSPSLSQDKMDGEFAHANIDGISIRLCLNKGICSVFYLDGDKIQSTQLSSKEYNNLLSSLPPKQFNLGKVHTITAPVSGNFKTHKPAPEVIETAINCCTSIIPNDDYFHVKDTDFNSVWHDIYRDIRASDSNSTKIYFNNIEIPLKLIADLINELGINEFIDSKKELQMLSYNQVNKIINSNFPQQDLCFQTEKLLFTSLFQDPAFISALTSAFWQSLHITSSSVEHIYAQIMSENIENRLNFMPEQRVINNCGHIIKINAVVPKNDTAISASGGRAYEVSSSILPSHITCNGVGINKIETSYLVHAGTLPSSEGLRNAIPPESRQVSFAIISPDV

Ras-related protein Rab-1A (Homo sapiens), P62820 S25N, sequence (P62820 whole entry S25N): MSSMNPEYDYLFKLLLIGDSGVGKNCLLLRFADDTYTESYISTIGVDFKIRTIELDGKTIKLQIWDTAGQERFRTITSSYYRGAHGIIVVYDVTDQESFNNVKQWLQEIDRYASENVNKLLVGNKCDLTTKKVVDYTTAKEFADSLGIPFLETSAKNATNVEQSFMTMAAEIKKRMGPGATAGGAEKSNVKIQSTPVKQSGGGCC
Ras-related protein Rab-1A (Homo sapiens), P62820 Q70L, sequence (P62820 whole entry Q70L): as the sequence (P62820 whole entry S25N) above, with N25S, Q70L counted along it

Substance: Ras-related protein Rab-1A (Homo sapiens), P62820 S25N
- effect of a mutation on the interaction: decreasing interaction strength

Substance: Ras-related protein Rab-1A (Homo sapiens), P62820 Q70L
- effect of a mutation on the interaction: increasing interaction strength
